Literature values as cited in publication PMC11329504, “Identification of novel small molecule-based strategies of COL7A1 upregulation and readthrough activity for the treatment of recessive dystrophic epidermolysis bullosa” (Scientific Reports, 2024).

Biological target: Laminin 5 (Homo sapiens) (UniProt Q16787)

Chain of Collagen VII NC1 NC1 (Q02388 17-1253): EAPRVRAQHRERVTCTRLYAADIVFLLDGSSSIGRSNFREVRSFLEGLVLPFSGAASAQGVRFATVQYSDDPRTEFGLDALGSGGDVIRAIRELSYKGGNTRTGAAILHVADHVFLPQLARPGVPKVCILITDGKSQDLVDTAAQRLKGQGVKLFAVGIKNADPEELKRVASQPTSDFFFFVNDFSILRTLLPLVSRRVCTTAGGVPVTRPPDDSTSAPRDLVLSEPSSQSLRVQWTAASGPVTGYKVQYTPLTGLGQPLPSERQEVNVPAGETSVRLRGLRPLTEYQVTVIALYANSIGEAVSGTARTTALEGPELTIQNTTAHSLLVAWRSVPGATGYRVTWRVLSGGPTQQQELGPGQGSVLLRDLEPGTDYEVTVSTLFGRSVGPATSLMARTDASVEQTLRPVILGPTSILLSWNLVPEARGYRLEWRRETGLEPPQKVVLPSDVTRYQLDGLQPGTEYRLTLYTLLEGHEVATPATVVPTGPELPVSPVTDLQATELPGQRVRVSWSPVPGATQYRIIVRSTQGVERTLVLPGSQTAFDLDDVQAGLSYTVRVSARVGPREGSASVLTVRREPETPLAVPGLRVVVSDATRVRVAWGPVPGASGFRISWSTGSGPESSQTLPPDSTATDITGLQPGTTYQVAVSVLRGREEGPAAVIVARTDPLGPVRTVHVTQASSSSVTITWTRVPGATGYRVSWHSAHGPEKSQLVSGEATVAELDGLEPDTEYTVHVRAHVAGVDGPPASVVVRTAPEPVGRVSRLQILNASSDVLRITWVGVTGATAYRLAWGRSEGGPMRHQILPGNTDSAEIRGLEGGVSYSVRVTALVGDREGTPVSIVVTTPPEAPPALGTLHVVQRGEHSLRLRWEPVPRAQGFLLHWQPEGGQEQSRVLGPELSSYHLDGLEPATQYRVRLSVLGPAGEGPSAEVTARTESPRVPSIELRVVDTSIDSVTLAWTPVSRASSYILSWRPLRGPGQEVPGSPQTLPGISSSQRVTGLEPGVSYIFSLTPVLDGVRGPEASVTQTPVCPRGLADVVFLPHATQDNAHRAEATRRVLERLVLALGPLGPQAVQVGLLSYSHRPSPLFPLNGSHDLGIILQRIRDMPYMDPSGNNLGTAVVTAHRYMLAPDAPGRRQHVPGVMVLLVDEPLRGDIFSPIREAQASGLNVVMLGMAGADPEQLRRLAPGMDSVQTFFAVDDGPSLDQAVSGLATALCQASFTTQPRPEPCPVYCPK

**Q.** Which Kd does the source give for “Collagen VII NC1 NC1 (from UniProt Q02388)” here?
**A.** Its Kd is 48 nM.
